Results published in article PMC6474364, “The Carbon Switch at the Level of Pyruvate and Phosphoenolpyruvate in Sulfolobus solfataricus P2” (Frontiers in Microbiology, 2019).

Legend:
PEPS (SSO0883) = target: T1, PEPS (SSO0883) (Saccharolobus solfataricus, UniProt Q97ZL2); experiment: discontinuous assay, PEP detected with PK/LDH, NADH […] nm; format: biochemical; conditions: read-out: % residual activity at 1 mM
T1 construct: gene ppsA-1; full-length, codon-optimised synthetic gene in pET11c, E. coli Rosetta (DE3) pRIL; partially purified by heat precipitation; no tag mentioned
T1 sequence (Q97ZL2 1-799): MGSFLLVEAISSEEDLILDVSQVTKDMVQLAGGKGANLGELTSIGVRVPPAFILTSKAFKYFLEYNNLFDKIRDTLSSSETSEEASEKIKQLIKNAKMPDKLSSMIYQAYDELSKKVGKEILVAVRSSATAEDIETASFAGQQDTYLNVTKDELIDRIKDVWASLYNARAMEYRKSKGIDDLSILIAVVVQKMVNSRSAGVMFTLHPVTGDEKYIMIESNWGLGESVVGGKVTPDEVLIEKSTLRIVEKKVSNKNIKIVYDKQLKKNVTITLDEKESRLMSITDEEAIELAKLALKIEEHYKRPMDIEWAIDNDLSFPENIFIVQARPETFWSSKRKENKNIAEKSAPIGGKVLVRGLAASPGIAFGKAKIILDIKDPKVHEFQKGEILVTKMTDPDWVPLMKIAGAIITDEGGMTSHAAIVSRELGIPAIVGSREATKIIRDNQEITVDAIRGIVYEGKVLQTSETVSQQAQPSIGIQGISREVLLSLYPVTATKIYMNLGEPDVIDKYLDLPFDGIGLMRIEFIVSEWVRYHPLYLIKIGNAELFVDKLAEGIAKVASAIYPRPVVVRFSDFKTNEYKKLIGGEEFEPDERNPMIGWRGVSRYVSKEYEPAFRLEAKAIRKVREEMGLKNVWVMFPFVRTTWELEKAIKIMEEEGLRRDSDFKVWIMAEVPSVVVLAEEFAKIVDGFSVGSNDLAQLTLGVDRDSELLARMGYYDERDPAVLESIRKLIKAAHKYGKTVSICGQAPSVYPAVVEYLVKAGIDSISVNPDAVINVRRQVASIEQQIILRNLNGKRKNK

PK (SSO0981) = target: T2, PK (SSO0981) (Saccharolobus solfataricus, UniProt Q97ZD7); experiment: continuous LDH-coupled assay, NADH […] nm; format: biochemical; conditions: non-competitive, allosteric; printed Ki equals the approximate concentration for 50% inhibition; half-saturating 0.03 mM PEP, 2 mM ADP, 10 mM MgCl2, 60°C (b61 says 70°C)
T2 construct: gene pyK; full-length ORF in pET324, E. coli Rosetta (DE3) pRIL; heat precipitation, ion exchange, gel filtration; no tag mentioned
T2 sequence (Q97ZD7 1-452): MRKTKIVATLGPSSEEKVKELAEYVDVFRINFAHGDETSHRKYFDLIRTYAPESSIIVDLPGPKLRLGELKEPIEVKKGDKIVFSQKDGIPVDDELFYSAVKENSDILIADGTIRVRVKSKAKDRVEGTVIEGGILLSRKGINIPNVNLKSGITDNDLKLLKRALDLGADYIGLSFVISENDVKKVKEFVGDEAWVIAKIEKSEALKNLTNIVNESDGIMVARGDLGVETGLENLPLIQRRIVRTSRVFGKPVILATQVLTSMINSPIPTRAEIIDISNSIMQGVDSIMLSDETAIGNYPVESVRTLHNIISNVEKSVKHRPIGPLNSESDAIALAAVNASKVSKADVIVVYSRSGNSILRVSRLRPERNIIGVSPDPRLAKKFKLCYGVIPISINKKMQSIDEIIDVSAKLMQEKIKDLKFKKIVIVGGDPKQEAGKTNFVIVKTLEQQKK

purified protein [1] = substrate: Nc1ncnc2c1ncn2[C@@H]1O[C@H](COP(=O)(O)OP(=O)(O)O)[C@@H](O)[C@H]1O; experiment: purified protein; format: biochemical, Saccharolobus solfataricus; conditions: 70°C, pH 6.5, 0.1 M HEPES, 10 mM MgCl2, co-substrate PEP
purified protein [2] = substrate: C=C(OP(=O)(O)O)C(=O)O; experiment: purified protein; format: biochemical, Saccharolobus solfataricus; conditions: 70°C, pH 6.5, 0.1 M HEPES, 10 mM MgCl2, co-substrate ADP
purified protein [3] = substrate: CC(=O)C(=O)O; experiment: purified protein; format: biochemical, Saccharolobus solfataricus; conditions: 70°C, pH 7.0, 100 mM Tris/HCl, 10 mM MgCl2, co-substrate ATP, anabolic direction
purified protein [4] = substrate: Nc1ncnc2c1ncn2[C@@H]1O[C@H](COP(=O)(O)OP(=O)(O)OP(=O)(O)O)[C@@H](O)[C@H]1O; experiment: purified protein; format: biochemical, Saccharolobus solfataricus; conditions: 70°C, pH 7.0, 100 mM Tris/HCl, 10 mM MgCl2, co-substrate pyruvate, anabolic direction

O=C(O)CCC(=O)C(=O)O [α-ketoglutarate]
remaining activity at 1000 µM (PEPS (SSO0883)): ~80%

Nc1ncnc2c1ncn2[C@@H]1O[C@H](COP(=O)(O)OP(=O)(O)OP(=O)(O)O)[C@@H](O)[C@H]1O [ATP]
IC50 (PK (SSO0981)): 800 µM

Nc1ncnc2c1ncn2[C@@H]1O[C@H](COP(=O)(O)O)[C@@H](O)[C@H]1O [AMP]
remaining activity at 1000 µM (PEPS (SSO0883)): ~80%

B1: PK (SSO0981) (Saccharolobus solfataricus P2) (protein)
chain: T2 sequence (Q97ZD7 1-452)
notes: full-length ORF in pET324, E. coli Rosetta (DE3) pRIL; heat precipitation, ion exchange, gel filtration; no tag mentioned
Km (purified protein [1]): 0.07 mM
Vmax (purified protein [1]): 70.8 µmol/min/mg
kcat (purified protein [1]): 58.8 s⁻¹
kcat/Km (purified protein [1]): 852000 M⁻¹ s⁻¹
Km (purified protein [2]): 0.09 mM
Vmax (purified protein [2]): 70.4 µmol/min/mg
kcat (purified protein [2]): 58.4 s⁻¹
kcat/Km (purified protein [2]): 628000 M⁻¹ s⁻¹

B2: PEPS (SSO0883) (Saccharolobus solfataricus P2) (protein)
chain: T1 sequence (Q97ZL2 1-799)
notes: full-length, codon-optimised synthetic gene in pET11c, E. coli Rosetta (DE3) pRIL; partially purified by heat precipitation; no tag mentioned
Km (purified protein [3]): 0.46 mM
Vmax (purified protein [3]): 0.32 µmol/min/mg
kcat (purified protein [3]): 0.48 s⁻¹
kcat/Km (purified protein [3]): 1040 M⁻¹ s⁻¹
Km (purified protein [4]): 0.61 mM
Vmax (purified protein [4]): 0.22 µmol/min/mg
kcat (purified protein [4]): 0.33 s⁻¹
kcat/Km (purified protein [4]): 530 M⁻¹ s⁻¹
